According to US20250052751A1 (University of California, published 2025):

Biological target: T1, MHC class II I-A^b molecules purified by affinity chromatography (;mouse, UniProt P14434 24-218; P14483 28-226, limits assumed)
T1 construct: Source of the purified I-A^b is not described beyond 'as described (22)'; also called MHC II (I-A^b); MHC II
T1 sequence (MHC II alpha, looked up): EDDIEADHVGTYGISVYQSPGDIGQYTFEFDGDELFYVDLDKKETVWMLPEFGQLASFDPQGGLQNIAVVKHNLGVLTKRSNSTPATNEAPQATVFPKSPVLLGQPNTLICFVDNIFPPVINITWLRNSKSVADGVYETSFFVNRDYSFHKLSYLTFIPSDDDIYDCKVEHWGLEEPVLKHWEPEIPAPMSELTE
T1 sequence (MHC II beta, looked up): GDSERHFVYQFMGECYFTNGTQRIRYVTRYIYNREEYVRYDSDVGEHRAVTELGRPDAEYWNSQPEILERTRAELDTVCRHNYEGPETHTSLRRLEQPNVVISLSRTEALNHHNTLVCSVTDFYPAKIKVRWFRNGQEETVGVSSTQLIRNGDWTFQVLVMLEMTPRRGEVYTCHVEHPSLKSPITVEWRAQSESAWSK
Assay: competitive binding assay, purified I-A^b, radiolabeled competitor peptide
Procedure: We have now examined AQP4 peptide affinity for I-A^b biochemically. I-A^b molecules that were purified by affinity chromatography were tested in a competitive binding assay between a radiolabeled high-affinity competitor peptide and unlabeled peptides (22). Indeed, peptides containing the two pathogenic AQP4 T cell determinants bound I-A^b with higher affinity than the nonpathogenic AQP4 p24-35 T cell epitope or MOG p35-55 (FIG. 2D).

fold greater affinity than MOG p35-55: > 10 fold
B1: AQP4 p202-218 (peptide)
peptide: LFAINYTGASMNPARSF
notes: Synthetic peptide (Genemed Synthesis); also called pathogenic AQP4 T cell determinant
